From patent publication US20110171292A1 (RESEARCH FOUNDATION OF STATE UNIVERSITY OF NEW YORK, published 2011)
Positions of bridges follow the written chain, without caps; N, C: chain ends. No end group written: not given here.

Target: thioredoxin reductase
Assay: cell-based or functional assay

With GTCVNVGCIPRQIKIWFQNRRMKWKK (disulfide 3-8 (inferred)) [peptide YJB02] the “IC50 of thioredoxin reductase activity (DTNB reduction, absorbance at 405-414 nM)” value was 36 nM.
